Measured values published in article doi:10.1101/511394.
Like-named read-outs stand apart in the source and are kept apart here.

B1: C/C duplex (dsDNA)
DNA 1: GCGGCTGCGTGGGTCC
DNA 2: GGACCCACGCAGCCGC
B2: hmC/C duplex (dsDNA)
DNA 1: GCGGCTGCGTGGGTCC
DNA 2: GGACCCACGCAGCCGC
modifications: 5-hydroxymethylcytosine at central CpG of one strand (strand not stated), C on the other
B3: mC/mC duplex (dsDNA)
DNA 1: GCGGCTGCGTGGGTCC
DNA 2: GGACCCACGCAGCCGC
modifications: 5-methylcytosine at central CpG C8 of both strands
B4: hmC/hmC duplex (dsDNA)
DNA 1: GCGGCTGCGTGGGTCC
DNA 2: GGACCCACGCAGCCGC
modifications: 5-hydroxymethylcytosine at central CpG C8 of both strands
B5: fC/fC duplex (dsDNA)
DNA 1: GCGGCTGCGTGGGTCC
DNA 2: GGACCCACGCAGCCGC
modifications: 5-formylcytosine at central CpG C8 of both strands

Legend:
ZHX1 = target: T1, ZHX1 (UniProt Q9UKY1 55-830); assay: EMSA
T1 sequence: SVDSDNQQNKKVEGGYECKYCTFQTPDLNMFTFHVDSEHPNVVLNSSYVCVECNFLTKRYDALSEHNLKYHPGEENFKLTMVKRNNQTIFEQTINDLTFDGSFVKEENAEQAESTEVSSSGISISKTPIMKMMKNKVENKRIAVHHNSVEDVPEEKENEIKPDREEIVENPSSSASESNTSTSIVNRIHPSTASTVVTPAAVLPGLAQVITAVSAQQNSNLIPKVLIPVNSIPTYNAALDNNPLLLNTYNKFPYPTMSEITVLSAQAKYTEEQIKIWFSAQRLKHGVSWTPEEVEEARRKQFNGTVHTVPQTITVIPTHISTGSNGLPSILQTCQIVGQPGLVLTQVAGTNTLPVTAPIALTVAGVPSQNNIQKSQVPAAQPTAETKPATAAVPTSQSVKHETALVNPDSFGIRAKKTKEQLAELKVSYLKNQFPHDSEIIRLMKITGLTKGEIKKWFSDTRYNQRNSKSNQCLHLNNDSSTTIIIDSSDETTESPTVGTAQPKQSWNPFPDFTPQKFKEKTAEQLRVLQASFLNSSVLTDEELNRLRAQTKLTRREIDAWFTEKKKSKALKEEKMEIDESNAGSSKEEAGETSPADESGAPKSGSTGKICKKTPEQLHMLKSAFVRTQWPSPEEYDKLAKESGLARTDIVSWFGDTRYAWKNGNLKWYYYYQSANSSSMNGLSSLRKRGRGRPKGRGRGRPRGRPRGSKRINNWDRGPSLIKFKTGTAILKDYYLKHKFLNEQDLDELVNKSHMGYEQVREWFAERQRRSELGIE

[1] = target: T2, C3ORF37/HMCES full-length (UniProt Q96FZ2 1-354); assay: filter binding
T2 sequence: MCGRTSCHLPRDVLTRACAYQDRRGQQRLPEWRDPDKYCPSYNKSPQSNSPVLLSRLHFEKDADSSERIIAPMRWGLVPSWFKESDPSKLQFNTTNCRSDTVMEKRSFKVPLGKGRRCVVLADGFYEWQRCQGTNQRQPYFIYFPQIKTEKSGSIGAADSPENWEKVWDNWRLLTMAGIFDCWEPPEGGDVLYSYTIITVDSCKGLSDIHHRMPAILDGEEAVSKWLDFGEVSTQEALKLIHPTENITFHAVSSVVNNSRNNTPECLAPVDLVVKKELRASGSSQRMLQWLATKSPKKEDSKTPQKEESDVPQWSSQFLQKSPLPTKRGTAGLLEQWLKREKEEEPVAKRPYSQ

WDR76 NTD = target: T3, WDR76 NTD (Homo sapiens, UniProt Q9H967 1-151); assay: filter binding
T3 sequence: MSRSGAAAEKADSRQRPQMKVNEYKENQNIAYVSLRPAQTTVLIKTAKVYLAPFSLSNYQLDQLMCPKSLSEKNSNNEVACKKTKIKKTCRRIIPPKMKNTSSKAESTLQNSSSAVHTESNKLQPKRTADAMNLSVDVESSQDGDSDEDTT

[2] = target: T4, WDR76 (FLAG-HA, HEK293 purified) (Homo sapiens, UniProt Q9H967 1-626); assay: EMSA
T4 sequence: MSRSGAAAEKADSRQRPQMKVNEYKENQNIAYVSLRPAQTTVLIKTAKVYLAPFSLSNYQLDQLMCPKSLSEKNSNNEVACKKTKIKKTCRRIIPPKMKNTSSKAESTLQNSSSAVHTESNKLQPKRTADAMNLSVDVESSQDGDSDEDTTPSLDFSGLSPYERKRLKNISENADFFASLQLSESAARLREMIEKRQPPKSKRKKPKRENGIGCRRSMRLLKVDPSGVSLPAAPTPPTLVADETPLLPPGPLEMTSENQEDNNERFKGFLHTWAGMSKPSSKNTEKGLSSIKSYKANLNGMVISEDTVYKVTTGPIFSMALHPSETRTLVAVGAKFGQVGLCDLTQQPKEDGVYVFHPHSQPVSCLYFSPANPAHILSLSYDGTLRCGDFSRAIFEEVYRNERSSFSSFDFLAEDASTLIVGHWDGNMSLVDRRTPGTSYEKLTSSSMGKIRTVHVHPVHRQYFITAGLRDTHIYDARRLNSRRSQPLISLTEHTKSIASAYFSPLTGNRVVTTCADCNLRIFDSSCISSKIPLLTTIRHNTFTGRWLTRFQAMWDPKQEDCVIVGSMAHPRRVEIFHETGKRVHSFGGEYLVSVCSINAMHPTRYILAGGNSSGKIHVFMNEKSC

[3] = target: T5, WDR76 (FLAG-HA, insect cell) (Homo sapiens, UniProt Q9H967 1-626); assay: EMSA
T5 sequence: T4 sequence

[4] = target: T5, WDR76 (FLAG-HA, insect cell); assay: EMSA; remark: listed apart in the source

Binder	binding result (ZHX1)	binding result [2]	also measured
B1	no binding	–	binding result [1]: no binding
B2	–	–	binding result (WDR76 NTD): binds
B3	no binding	–	–
B4	no binding	binds	binding result [3]: binds
B5	no binding	no binding	binding result [4]: no binding
